# Target: HA-tagged PA of FluA (Influenza A virus)
# Assay: ELISA
# soluble wild-type PB1_(1–25)A peptide (non-biotinylated competitor), sequence (A4GCI3 1-25): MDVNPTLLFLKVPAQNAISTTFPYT
substance,measurement,value
soluble wild-type PB1_(1–25)A peptide (non-biotinylated competitor),IC50,1.8 nM

# Source: publication PMC2759517
